Data from patent US20110300138A1 (published 2011).

Experiments:
[1] = biological target: human TSH receptor (full length, wild type) expressed in CHO cells (human) (UniProt P16473); test: cell-based or functional assay
[2] = biological target: human TSH receptor (full length, wild type) expressed on CHO cells (human) (UniProt P16473); test: cell-based or functional assay

Q: How did the Cyclic AMP concentration at 0.1 units/L NIBSC 90/672 [1] turn out when “NIBSC reference preparation 90/672 (Thyroid Stimulating Autoantibody reference preparation)” was run?
A: 5 pmol/mL

Q: What about the Cyclic AMP concentration at 0.3 units/L NIBSC 90/672 [1] of the same substance?
A: 12.5 pmol/mL

Q: What about the Cyclic AMP concentration at 1 unit/L NIBSC 90/672 [1] of the same substance?
A: 27.4 pmol/mL

Q: Which Cyclic AMP concentration in hypotonic medium; 100 ng/mL hTSH alone [2] does the source give for “native human TSH (from UniProt P01215 25-116; P01222 21-132) (ligand)” here?
A: 56.8 pmol/mL

Q: And the Cyclic AMP concentration in isotonic medium; 100 ng/mL hTSH alone [2]?
A: 42.3 pmol/mL

Q: “recombinant human TSH (from UniProt P01215 25-116; P01222 21-138) (ligand)” was tested. Which Cyclic AMP concentration in hypotonic medium; 100 ng/mL rhTSH alone [2] did it give?
A: 37.8 pmol/mL

Q: And the Cyclic AMP concentration in isotonic medium; 100 ng/mL rhTSH alone [2]?
A: 29.9 pmol/mL
